Data published in US20180282386A1 (REGENTS OF THE UNIVERSITY OF MINNESOTA, published 2018).

T1: CD133 on Caco-2 cells (human, UniProt O43490 20-865)
T1 construct: whole, on cells; also called prominin-1
T1 sequence (looked up): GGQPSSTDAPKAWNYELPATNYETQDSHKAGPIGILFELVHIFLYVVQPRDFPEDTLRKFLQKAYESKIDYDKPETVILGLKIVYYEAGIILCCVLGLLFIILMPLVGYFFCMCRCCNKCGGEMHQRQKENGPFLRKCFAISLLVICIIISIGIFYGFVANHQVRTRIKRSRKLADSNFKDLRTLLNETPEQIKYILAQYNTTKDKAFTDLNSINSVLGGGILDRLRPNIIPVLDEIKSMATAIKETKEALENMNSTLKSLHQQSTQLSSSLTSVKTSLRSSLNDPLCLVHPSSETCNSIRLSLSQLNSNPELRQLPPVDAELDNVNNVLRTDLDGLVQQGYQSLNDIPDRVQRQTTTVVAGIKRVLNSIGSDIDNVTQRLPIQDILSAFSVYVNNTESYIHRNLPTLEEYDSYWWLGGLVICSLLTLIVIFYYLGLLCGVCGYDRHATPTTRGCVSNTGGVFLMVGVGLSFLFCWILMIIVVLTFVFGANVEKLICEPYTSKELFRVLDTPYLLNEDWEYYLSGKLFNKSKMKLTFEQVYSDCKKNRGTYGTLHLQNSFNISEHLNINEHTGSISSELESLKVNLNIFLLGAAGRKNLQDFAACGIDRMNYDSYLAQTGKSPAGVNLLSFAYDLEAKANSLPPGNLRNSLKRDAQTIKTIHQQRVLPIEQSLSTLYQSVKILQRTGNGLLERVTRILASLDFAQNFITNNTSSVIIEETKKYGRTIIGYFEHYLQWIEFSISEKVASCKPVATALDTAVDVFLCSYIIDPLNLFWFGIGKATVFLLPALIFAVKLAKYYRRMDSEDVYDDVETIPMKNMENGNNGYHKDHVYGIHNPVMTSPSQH

B1: 1633 bispecific killer engager (BiKE) (bispecific antibody)
chain: MEVQLVESGGGVVRPGGSLRLSCAASGFTFDDYGMSWVRQAPGKGLEWVSGINWNGGSTGYADSVKGRFTISRDNAKNSLYLQMNSLRAEDTAVYYCARGRSLLFDYWGQGTLVTVSRGGGGSGGGGSGGGGSSELTQDPAVSVALGQTVRITCQGDSLRSYYASWYQQKPGQAPVLVIYGKNNRPSGIPDRFSGSSSGNTASLTITGAQAEDEADYYCNSRDSSGNHVVFGGGTKLTVLPSGQAGAAASESLFVSNHAYQVQLVQSGAEVKKPGSSVKVSCKASGYTFTDYNMHWVRQAPGQGLEWIGYIYPYNGGTGYNQKFKSKATITADESTNTAYMELSSLRSEDTAVYYCARGRPAMDYWGQGTLVTVSSGGGGSGGGGSGGGGSDIQMTQSPSSLSASVGDRVTITCRASESVDNYGISFMNWFQQKPGKAPKLLIYAASNQGSGVPSRFSGSGSGTDFTLTISSLQPDDFATYYCQQSKEVPWTFGQGTKVEIK
modifications: FITC label (site not stated)
B2: anti-CD133 scFv (scFv)
scFv: MDIVLSQSPAIMSASPGEKVTISCSASSSVSYMYWYQQKPGSSPKPWIYRTSNLASGVPARFSGSGSGTSYSLTISSMEAEDAATYYCQQYHSYPPTFGAGTKLELKSSGGGGSGGGGGGSSRSSLEVKLVESGPELKKPGETVKISCKASGYTFTDYSMHWVNQAPGKGLKWMGWINTETGEPSYADDFKGRFAFSLETSASTAYLQINNLKNEDTATYFCATDYGDYFDYWGQGTTLTVSS
notes: also called monomeric CD133 scFv; anti-CD133 scFv from clone 7

Experiments:
[1] = target: EpCAM on HT-29 cells (human) (UniProt P16422); test: flow cytometry, direct binding to CD33- EpCAM+ HT-29 cells (specificity control), 4 µg drug
Chain of EpCAM on HT-29 cells (human) (P16422 24-314): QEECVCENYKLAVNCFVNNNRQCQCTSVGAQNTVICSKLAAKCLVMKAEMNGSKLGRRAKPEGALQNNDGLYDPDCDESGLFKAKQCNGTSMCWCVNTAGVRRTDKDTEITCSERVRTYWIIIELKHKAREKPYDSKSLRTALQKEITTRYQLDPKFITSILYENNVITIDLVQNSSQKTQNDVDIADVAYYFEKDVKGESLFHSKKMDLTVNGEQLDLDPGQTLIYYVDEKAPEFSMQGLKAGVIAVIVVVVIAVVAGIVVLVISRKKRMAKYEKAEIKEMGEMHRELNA

CD133 on Caco-2 cells = target: T1, CD133 on Caco-2 cells; test: flow cytometry on Caco-2 cells, competition with FITC-labeled 1615133 TriKE

Row | Binder | % Positive Cells [1] [%] | binding result (CD133 on Caco-2 cells)
1 | B1 | 1 | –
2 | B2 | – | binds
